Assay [1] deals with CSL (residues 10-436 of human isoform 1, myc/his) (human) (UniProt Q06330).
Assay [2] concerns the target CSL^F235L (residues 10-436 of human isoform 1, myc/his) (human) (UniProt Q06330).
In assay [3] the target is CAN (CSL-ANKNLS) fusion protein (human) (UniProt Q06330).
For assay [4], the target named is CSL (residues 10-436 of human isoform 1, myc/his) (human) (UniProt Q06330). This is another data set of the same source.
The target is the same in assay [5]. The source holds these as a separate data set.
For assay [6], the target named is CAN (CSL-ANKNLS) fusion protein (human) (UniProt Q06330). This is another data set of the same source.
Assay [7] deals with CSL BTD (Homo sapiens) (UniProt Q06330). The conditions noted are these: cited from earlier work.

pKd: −log10 of the molar value.

For “NICD* (full-length NICD with xWxP to A4) (domain or fragment)”, the TP1-luc luciferase reporter in OT11 cells; NICD* co-transfected with CSL; fold activation in assay [1] is 4 fold. In assay [2], the TP1-luc luciferase reporter in OT11 cells; NICD* co-transfected with CSL^F235L; fold activation was found to be 38 fold.
In the case of “dominant-negative form of MAML (dnMAML) (domain or fragment)”, the TP1-luc luciferase reporter in OT11 cells; CAN co-transfected with RAM and 1 to 30 ng dnMAML plasmid; percent of maximal (uninhibited) activation, nearly 0% at 30 ng (% of maximal activation) in assay [3] was determined as 25. For the same substance, the TP1-luc luciferase reporter in OT11 cells; CSL co-transfected with … and 1 to 30 ng dnMAML plasmid; percent of maximal (uninhibited) activation, nearly 0% at 30 ng (% of maximal activation) in assay [4] was 30.
“RAM (human Notch1 residues 1758-1878) (from UniProt P46531 1758-1878) (domain or fragment)”: in assay [5], the TP1-luc luciferase reporter in OT11 cells; RAM and ANKNLS in trans co-transfected with CSL; fold activation stood at 9 fold. The substance further gave a TP1-luc luciferase reporter in OT11 cells; RAM co-transfected with CAN; fold over CAN alone in assay [6] of 6 fold.
As to “… (human Notch1 residues 1758-2174) (from UniProt P46531 1758-2174) (domain or fragment)”, in assay [5], the TP1-luc luciferase reporter in OT11 cells; … co-transfected with CSL; fold over empty vector was 24 fold.
As to “full-length NICD (human Notch1 intracellular domain) (domain or fragment)”, the TP1-luc luciferase reporter in OT11 cells; NICD co-transfected with CSL; fold activation in assay [1] is 100 fold. In assay [2], this substance registered a TP1-luc luciferase reporter in OT11 cells; NICD co-transfected with CSL^F235L; fold activation of 94 fold.
Take “Notch intracellular domain RAM region RAM (from UniProt P46531)”: the pKd in assay [7] was 7.00.

By pKd is commonly meant the Kd on a negative log10 scale, so that one unit is a factor of ten.

The values above are taken from PMC3410904.
